# Measured values as given in article doi:10.1101/2020.08.10.245522.
# How the values were obtained:
# [1] = target: CA hexamer-2 (HIV-1 | not stated); test: SEC-MALS
# [2] = target: A14C/E45C disulfide crosslinked CA tubes (HIV-1); test: co-sedimentation
# [3] = target: CA hexamer-2 (HIV-1 | not stated); test: ITC
# NUP153^1401-1475, sequence (P49790 1401-1475): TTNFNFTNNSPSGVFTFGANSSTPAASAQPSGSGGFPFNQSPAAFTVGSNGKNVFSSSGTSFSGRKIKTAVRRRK
Substance,percent bound to CA tubes [2] [%],further results
NUP153^1401-1475 (from UniProt P49790 1401-1475) (domain or fragment),,stoichiometry N (NUP153^1401-1475 per hexamer-2) [1]: 1
NUP153^1411-1465 (from UniProt P49790 1411-1464) (domain or fragment),25,
NUP153^1411-1475/1425-1464Δ peptide (25 aa) (from UniProt P49790 1411-1475),,Kd [3]: 800 nM
NUP153^1465-1475 (from UniProt P49790 1465-1475) (domain or fragment),50,
